{"source": "patent US20230330251A1", "about": "“METHODS FOR TREATING CANCERS WITH ANTIBODY DRUG CONJUGATES (ADC) THAT BIND TO 191P4D12 PROTEINS” (AGENSYS, INC., priority 2020, published 2023)", "key": {"[1]": {"system": "patients with previously treated locally advanced or metastatic urothelial carcinoma (la/mUC) with poor prognostic factors", "assay": "EV-301 hard-to-treat subgroups: safety and tolerability", "format": "in vivo, human", "procedure": "Subgroup analyses were prespecified for the primary endpoint of OS and secondary endpoints of investigator-assessed progression-free survival (PFS) and overall response rate (ORR) per RECIST v1.1. Kaplan-Meier analyses compared OS and PFS between treatments for selected hard-to-treat subgroups as follows: age ≥65 years, presence of liver metastasis, primary upper tract disease, and checkpoint inhibitor (CPI) nonresponse. ORR and safety were also evaluated within subgroups. The Cox proportional hazards model was used to estimate hazard ratios. The Cochran-Mantel-Haenszel test was used to compare response and disease control rates between groups."}, "[2]": {"system": "subjects with previously treated locally advanced or metastatic urothelial cancer", "assay": "EV-301: duration of response (DOR) per RECIST V1.1", "format": "in vivo, human", "description": "Duration of Response (DOR) is defined as the time from the date of the first response CR/PR per RECIST V1.1 (whichever is first recorded) that is subsequently confirmed as assessed by investigator to the date of radiological progression or date of death for subjects who achieved CR or PR. If a subject has not progressed or died, the subject was censored at the date of last radiological assessment or at the date of first CR/PR if no other post-baseline radiological assessment is available after the first CR/PR. The median DOR was estimated using the Kaplan-Meier method and is reported along with the corresponding 95% confidence interval by treatment arm."}, "191P4D12": {"biological_target": "T1, 191P4D12 (Homo sapiens, UniProt Q96NY8)", "T1 sequence (Q96NY8 32-510)": "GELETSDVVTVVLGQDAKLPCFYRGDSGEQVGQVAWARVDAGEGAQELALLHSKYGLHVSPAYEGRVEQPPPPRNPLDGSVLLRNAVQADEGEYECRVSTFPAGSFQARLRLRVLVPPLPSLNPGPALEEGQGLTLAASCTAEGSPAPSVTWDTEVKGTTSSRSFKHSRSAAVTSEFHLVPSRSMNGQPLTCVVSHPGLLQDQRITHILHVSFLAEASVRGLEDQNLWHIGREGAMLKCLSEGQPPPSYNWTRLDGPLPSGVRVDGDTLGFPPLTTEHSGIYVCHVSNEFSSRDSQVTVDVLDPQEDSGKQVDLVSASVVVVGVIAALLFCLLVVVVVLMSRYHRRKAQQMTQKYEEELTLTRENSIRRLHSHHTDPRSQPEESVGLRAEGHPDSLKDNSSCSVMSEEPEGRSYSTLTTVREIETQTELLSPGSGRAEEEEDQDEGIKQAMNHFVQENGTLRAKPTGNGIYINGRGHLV", "description": "As described above and in U.S. Pat. No. 8,637,642, AGS-22M6E is an ADC derived from a murine hybridoma cell line."}, "[3]": {"conditions": "Aged ≥65 Years, N = 190 EV, 188 SC"}, "[4]": {"conditions": "Nonresponsive to Prior PD-1/L1 Inhibitor, N = 202 EV, 202 SC"}, "[5]": {"conditions": "Presence of Liver Metastasis, N = 90 EV, 92 SC"}, "[6]": {"conditions": "Primary Upper Tract Disease, N = 96 EV, 102 SC"}, "[7]": {"conditions": "patients with confirmed complete or partial response"}}, "data": [{"substance": "enfortumab vedotin", "values": [{"measurement": "Grade ≥3 TRAE: Anemia, %", "setting": "[1]; [3]", "value": 2.6, "unit": "%"}, {"measurement": "Grade ≥3 TRAE: Decreased neutrophil count, %", "setting": "[1]; [3]", "value": 7.4, "unit": "%"}, {"measurement": "Grade ≥3 TRAE: Decreased white blood cell count, %", "setting": "[1]; [3]", "value": 2.1, "unit": "%"}, {"measurement": "Grade ≥3 TRAE: Fatigue, %", "setting": "[1]; [3]", "value": 7.9, "unit": "%"}, {"measurement": "Grade ≥3 TRAE: Febrile neutropenia, %", "setting": "[1]; [3]", "value": 1.1, "unit": "%"}, {"measurement": "Grade ≥3 TRAE: Maculopapular rash, %", "setting": "[1]; [3]", "value": 7.4, "unit": "%"}, {"measurement": "Grade ≥3 TRAE: Neutropenia, %", "setting": "[1]; [3]", "value": 3.7, "unit": "%"}, {"measurement": "Grade ≥3 TRAE: Anemia, %", "setting": "[1]; [4]", "value": 3.0, "unit": "%"}, {"measurement": "Grade ≥3 TRAE: Decreased neutrophil count, %", "setting": "[1]; [4]", "value": 5.0, "unit": "%"}, {"measurement": "Grade ≥3 TRAE: Decreased white blood cell count, %", "setting": "[1]; [4]", "value": 1.0, "unit": "%"}, {"measurement": "Grade ≥3 TRAE: Fatigue, %", "setting": "[1]; [4]", "value": 5.0, "unit": "%"}, {"measurement": "Grade ≥3 TRAE: Febrile neutropenia, %", "setting": "[1]; [4]", "value": 1.0, "unit": "%"}, {"measurement": "Grade ≥3 TRAE: Maculopapular rash, %", "setting": "[1]; [4]", "value": 9.4, "unit": "%"}, {"measurement": "Grade ≥3 TRAE: Neutropenia, %", "setting": "[1]; [4]", "value": 4.5, "unit": "%"}, {"measurement": "Grade ≥3 TRAE: Anemia, %", "setting": "[1]; [5]", "value": 3.3, "unit": "%"}, {"measurement": "Grade ≥3 TRAE: Decreased neutrophil count, %", "setting": "[1]; [5]", "value": 5.6, "unit": "%"}, {"measurement": "Grade ≥3 TRAE: Fatigue, %", "setting": "[1]; [5]", "value": 5.6, "unit": "%"}, {"measurement": "Grade ≥3 TRAE: Febrile neutropenia, %", "setting": "[1]; [5]", "value": 2.2, "unit": "%"}, {"measurement": "Grade ≥3 TRAE: Maculopapular rash, %", "setting": "[1]; [5]", "value": 8.9, "unit": "%"}, {"measurement": "Grade ≥3 TRAE: Neutropenia, %", "setting": "[1]; [5]", "value": 5.6, "unit": "%"}, {"measurement": "Grade ≥3 TRAE: Anemia, %", "setting": "[1]; [6]", "value": 6.3, "unit": "%"}, {"measurement": "Grade ≥3 TRAE: Decreased neutrophil count, %", "setting": "[1]; [6]", "value": 9.4, "unit": "%"}, {"measurement": "Grade ≥3 TRAE: Decreased white blood cell count, %", "setting": "[1]; [6]", "value": 1.0, "unit": "%"}, {"measurement": "Grade ≥3 TRAE: Fatigue, %", "setting": "[1]; [6]", "value": 9.4, "unit": "%"}, {"measurement": "Grade ≥3 TRAE: Febrile neutropenia, %", "setting": "[1]; [6]", "value": 2.1, "unit": "%"}, {"measurement": "Grade ≥3 TRAE: Maculopapular rash, %", "setting": "[1]; [6]", "value": 10.4, "unit": "%"}, {"measurement": "Grade ≥3 TRAE: Neutropenia, %", "setting": "[1]; [6]", "value": 6.3, "unit": "%"}, {"measurement": "grade ≥3 treatment-related AEs adjusted for treatment exposure, EV versus SC", "setting": "[1]; across all four hard-to-treat subgroups", "value": "less frequently"}, {"measurement": "overall rate of AE's", "setting": "[1]; patients non-responsive to prior treatment with PD-1/L1 inhibitors", "value": 97.5, "unit": "%"}, {"measurement": "overall rate of AE's", "setting": "[1]; patients with liver metastasis", "value": 97.8, "unit": "%"}, {"measurement": "overall rate of AE's", "setting": "[1]; patients with primary upper tract disease", "value": 99.0, "unit": "%"}, {"measurement": "overall rate of AE's", "setting": "[1]; patients ≥65 years of age", "value": 97.4, "unit": "%"}, {"measurement": "median duration of response", "setting": "[2]; patients who had a complete or partial response", "value": 7.39, "unit": "months"}, {"measurement": "Duration of Response (DOR), Events, %", "setting": "[2]; [7]", "value": "(53.8%)"}, {"measurement": "Duration of Response, At 6 months", "setting": "[2]; [7]", "value": 53.8, "unit": "%"}, {"measurement": "Duration of Response, At 12 months", "setting": "[2]; [7]", "value": 27.7, "unit": "%"}, {"measurement": "Median of DOR", "setting": "[2]; [7]", "value": 7.39, "unit": "Months"}, {"measurement": "comparability between enfortumab vedotin and AGS-22M6E", "setting": "191P4D12", "value": "confirmed"}]}]}
